Data published in patent publication US20120232127A1, “REGULATION OF NEUROTRANSMITTER RELEASE THROUGH ANION CHANNELS” (KOREA INSTITUTE OF SCIENCE AND TECHNOLOGY, priority 2008, published 2012).

Legend:
[1] = system: intracellular Ca2+ in cultured astrocytes; test: Ca2+ imaging of TFLLR-induced [Ca2+]i transient in cultured astrocytes; assay type: cell-based, mouse; conditions: shRNA expressing astrocytes, sniffer patch, TFLLR
Experimental: The External solution was comprised of (in mM) 150 NaCl, 10 HEPES, 3 KCl, 2 CaCl2, 2 MgCl2, 5.5 glucose, at pH 7.3 (˜320 mOsm). For voltage clamp recordings, the internal solution contained 25 μg/ml gramicidin D and (in mM) 75 Cs2SO4, 10 NaCl, 0.1 CaCl2, and 10 HEPES, at pH 7.1 (˜310 mOsm). For current clamp recordings, the internal solution contained 25 μg/ml gramicidin D and (in mM) 75 K2SO4, 10 KCl, 0.1 CaCl2, and 10 HEPES, at pH 7.1 (˜310 mOsm). Pipette resistances ranged from 5 to 8 MΩ. For perforated patch clamp, it took 20 to 30 min to achieve acceptable perforation, with final series resistances ranging from 15 to 40 MΩ.
To test if activation of PAR1 by its specific agonist (e.g., TFLLR) causes any change in membrane conductance that might contribute to glutamate release from astrocytes, the whole cell currents and intracellular Ca^2+ responses in cultured astrocytes under gramicidin-D perforated patch configuration were simultaneously recorded (FIG. 1a). This technique minimized dialysis of intracellular ions.

[2] = molecular target: T1, astrocytic CAAC / mBest1 channel (glutamate release) (Mus musculus, UniProt O88870, R255K); test: Sniffer patch: astrocyte to GluR1 (L497Y)-expressing HEK293T cell pairs, TFLLR-induced glutamate release; assay type: cell-based; conditions: sniffer patch, lentiviral shRNA expressing astrocytes, TFLLR
T1 construct: endogenous in cells; host or cells: cultured mouse cortical astrocytes
T1 sequence (O88870 1-551 R255K): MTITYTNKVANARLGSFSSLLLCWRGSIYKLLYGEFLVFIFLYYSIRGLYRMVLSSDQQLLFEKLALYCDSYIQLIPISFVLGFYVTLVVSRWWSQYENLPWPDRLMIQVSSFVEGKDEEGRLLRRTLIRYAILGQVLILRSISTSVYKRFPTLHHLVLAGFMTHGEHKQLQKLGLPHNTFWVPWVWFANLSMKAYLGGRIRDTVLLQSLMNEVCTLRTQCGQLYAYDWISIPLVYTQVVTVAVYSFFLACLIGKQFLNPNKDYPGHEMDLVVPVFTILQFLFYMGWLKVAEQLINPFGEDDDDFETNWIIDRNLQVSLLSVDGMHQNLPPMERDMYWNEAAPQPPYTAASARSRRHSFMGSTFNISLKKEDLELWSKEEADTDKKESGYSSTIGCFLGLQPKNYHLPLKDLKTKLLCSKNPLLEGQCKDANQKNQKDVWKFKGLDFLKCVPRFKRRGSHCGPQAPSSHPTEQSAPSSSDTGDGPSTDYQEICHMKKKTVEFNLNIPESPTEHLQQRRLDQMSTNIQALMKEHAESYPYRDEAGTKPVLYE
Experimental: (§1) The sniffer patch technique, which is used for determining whether or not one is permeable to glutamate, was performed as described in Lee, C. J. et al. Astrocytic control of synaptic NMDA receptors. J Physiol 581, 1057-81 (2007), which is hereby incorporated by reference for all purposes as if fully set forth herein.
(§2) 2. In experiments using astrocyte-HEK293T cell pairs, the sniffer patch techniques used naïve, scrambled- or mBest1-specific shRNA expressing (with GFP) astrocytes as a glutamate source; and GluR1 (L497Y) expressing HEK293T cells (with DsRED) as a detector. After obtaining gigaohm sealing, GluR1 (L497Y)-expressing cell was firstly ruptured, and then counterpart astrocytes were pressure-applied with 500 uM of TFLLR to evoke an increase in astrocytic intracellular Ca^2+ and resulting glutamate release onto the adjacent HEK293T cells.
(§3) GluR1LY-expressing detector cells were patched with the pipette solution pH 7.3 containing 110 mM CsGluconate, 30 mM CsCl, 5 mM HEPES, 4 mM NaCl, 2 mM MgCl2, 5 mM EGTA, and 1 mM CaCl2. The percentage of GluR1 (L497Y)-mediated current to the full activation level was analyzed by dividing the current amplitude of GluR1 (L497Y) current obtained through sniffer patch measurement by that of fully activated GluR1 (L497Y) current in the same cells.
(§4) The glutamate release through astrocytic CAACs was examined by using “sniffer-patch” technique and recording real-time glutamate release from cultured astrocytes (FIG. 10a). Using this technique, the present inventors observed that TFLLR-induced astrocytic glutamate release into an adjacent HEK293T cells expressing the non-desensitizing AMPA receptor subunit GluR1 (L497Y) mutant evoked an inward current sensitive to AMPA receptor antagonists, which is interpreted to reflect release of glutamate. The effects of TFLLR on current responses in transfected HEK293T cells was blocked by the treatment of niflumic acid (% block by niflumic acid=66.6±5.7%, FIGS. 10d to 10f), which is consistent with the idea that astrocytic CAAC is permeable to glutamate.

[3] = system: astrocytic CAAC / mBest1 channel (glutamate release); test: as above; assay type: cell-based, mouse; conditions: relative to scrambled shRNA
Experimental: as §1, §2, §3, §4

B1: mBest1 shRNA: mBest1-specific short hairpin RNA, SEQ ID NO: 3 and 4 (lentiviral: SEQ ID NO: 30), nucleotides 563-582 of mBest1 (nucleic acid)
chain 1: GATCCCCTTGCCAACTTGTCAATGAATTCAAGAGATTCATTGACAAGTTGGCAATTTTTA
chain 2: GGGAACGGTTGAACAGTTACTTAAGTTCTCTAAGTAACTGTTCAACCGTTAAAAATTCGA
For B1, the “increase in astrocytic intracellular Ca2+” value [1] was “unaffected”, the “percentage of GluR1 (L497Y)-mediated current to the fully activated GluR1 (L497Y) current by 1 mM glutamate” value [2] was 4.2±1.2% and the “remaining component of glutamate release from astrocytes by mBest1 knock-down” value [3] was “about 33%”.
